The text below walks through data of US20230374087A1, “METHOD TO IMPROVE PROTEIN QUALITY CONTROL” (The Johns Hopkins University, priority 2020, published 2023).

Like-named read-outs stand apart in the source and are kept apart here.

For one data set, the system named is CHIP pS20. Description: Immunoblot for phospho-S20 CHIP in myocytes. The data set is classed as cell-based, rat. To be noted: cardiomyocytes; cGMP or SIL; DT3 1 μM. As for the experimental part: (§1) Tissue and cultured cardiomyocytes were lysed in 1× lysis buffer (Cell Signaling Technology), protein concentration was measured by bicinchoninic acid assay (Pierce), and extracts were subjected to SDS-PAGE using Novex Tris-Glycine Gels (4-20% gradient gel, Life Technologies) or Mini-protean TGX Gels (4-20% gradient gel, Bio-Rad), transferred to nitrocellulose membranes, and probed with various primary antibodies (CHIP (#2080S), Hsc70 (#8444S), p-CHIP S20 (Custom antibody, AbMart Inc., Shanghai, China; Project: 25011-1), Myc (#2276S), GAPDH (#2118S), and α-tubulin (#3878S) (Cell Signaling) and ubiquitin antibody (#SAB4503053) from Sigma), and fluorescence-labeled secondary antibodies (Licor, #926-32211, 926-32210, 926-68023, or 926-68022). Gels were imaged (Odyssey, Licor) and band intensity quantified (Odyssey Software 3.1).
Human CHIP peptide fragments containing amino acid residues 13-30 were incubated with cGMP/PKG and assayed by MS. […] Phosphorylation was also observed at neighboring S24 and S26, but only when a S20A CHIP mutant was used (FIG. 2D). This indicates the primary target for PKG on CHIP is at S20. A monoclonal phospho-antibody generated against the S20 site in CHIP was tested in vitro with recombinant PKG1α and CHIP, verifying a consistent phospho-S20-CHIP signal. Use of a CHIP-S20A mutant CHIP confirmed specificity (FIG. 2E).
(In general: Immunoblotting shows a protein as a band on a membrane.)

A further data set relates to proteasome. Description: Proteasome activity assay in NRCMs. The data set is classed as cell-based, rat. To be noted: control cells and cells subjected to SI. As for the experimental part: Proteasome peptidase activity assays were performed as described (22) with slight modification.
The subject of data set [1] is neonatal rat cardiomyocytes (NRCMs). Description: LDH/MTT cytotoxicity assay after simulated ischemia (SI). To be noted: for SI-induced cytotoxicity (LDH/MTT ratio): sildenafil 1 μM.
Description: (§2) After overnight culture, subsets of NRCMs were infected with adenovirus (AdV) containing a FLAG-tagged PDE5, FLAG control, Myc-tagged CHIP WT or K31A (provided by Dr. Cam Patterson), S20E or S20A (Welgen Inc., Worcester, MA). Forty-eight hours after infection, cells were exposed to either simulated ischemia (SI) or normal conditions. SI involved incubating cells in DMEM containing deoxyglucose (20 mM), NaCl (125 mM), KCl (8 mM), KH2PO4 (1.2 mM), MgSO4 (1.25 mM), CaCl2) (1.2 mM), NaHCO3(6.25 mM), sodium lactate (5 mM), and HEPES (20 mM) with a pH of 6.6. Cells were then placed in an incubator chamber (Billups-Rothenberg) with 95% nitrogen, 4% carbon dioxide, and 1% oxygen. Normoxic controls were incubated in DMEM supplemented with 10% FBS in air composed of 95% carbon dioxide and 5% oxygen. RNA or protein was harvested after 48 hours of SI. Cells were also treated with sildenafil (1 μM) or vehicle, or small interference RNA (siRNA, 100 pM) specific for rat Stub1 (Qiagen, Cat. #: SI01532251) or scrambled control provided 24 hours after plating and transfected with Xfect (Takara) per manufacturer protocol.
(§3) Lactate dehydrogenase (LDH) leakage and (3-[4,5-dimethylthiazol-2-yl]-2,5-diphenyltetrazolium bromide) (MTT) were assessed in cultured cardiomyocytes and media after SI from the same culture dish. LDH was assayed by commercial assay (Roche) following manufacturer's protocol, read in 96 well microplates on a Spectramax M5 (Molecular Devices) at 490 nm absorbance. For MTT, cells were washed in phosphate-buffered saline, MTT (Sigma-Aldrich) working solution added to the culture dish, incubated at 37° C., solubilized with acidic isopropanol, transferred to a 96 well plate, and read at 570 nm with background subtraction at 650 nm on a Spectramax M5.
Data set [2] has as its target T1, recombinant human CHIP peptide fragment containing residues 13-30 (Uniprot Q9UNE7), WT.
T1 chain: LGAGGGSPEKSPSAQELK

Data set [3] addresses T2, recombinant human CHIP peptide fragment containing residues 13-30, S20A.
T2 chain: LGAGGGAPEKSPSAQELK

The subject of data set [4] is transthyretin (TTR) V122I. Description: TTR aggregates in NRCMs by confocal microscopy. To be noted: TTR V122I 5 μM, adenovirus, 14 days. The data set is classed as cell-based, rat. The method, then: Neonatal rat cardiomyocytes (NRCMs) were cultured in mutant transthyretin (TTR) valine 122 to isoleucine (V122I)-containing medium (5 μM) and transfected with a Chip SE (serine 20 phospho-mimetic) or SA ([…] phospho-null) adenovirus and cultured for 14 days. Cardiomyocytes were stained with phalloidin (red), TTR (green), and nuclei with DAPI (blue).

A further data set deals with T3, Hsc70 (Rattus norvegicus, UniProt P63018).
T3 construct: lysate from myocytes with or without exposure to SI were immunoprecipitated using Hsc70 as bait; endogenous in cells; host or cells: neonatal rat cardiomyocytes infected with adenovirus for Myc-tagged CHIP WT, S20E or S20A
Description: CHIP-Hsc70 co-immunoprecipitation from myocyte lysate. The data set is classed as cell-based. To be noted: myocytes with or without SI, Hsc70 as bait. As for the experimental part: as §1
To test whether thermodynamic stabilization of CHIP-HSC70 due to S20 phosphorylation enhances protein binding, lysate from myocytes with or without exposure to SI were immunoprecipitated using Hsc70 as bait. […] Reduced CHIP-Hsc70 interaction was also observed in vivo following MI in hearts with PKG activation suppressed by mPDE5A/oe, whereas this was enhanced in WT hearts (FIG. 5C, FIG. 14B).

For data set [5], the system named is neonatal rat cardiomyocytes (NRCMs).
Description: as §2, §3
For another data set, the system named is ubiquitinated proteins. Description: Western blot of ubiquitinated proteins in NRCMs after SI. In kind it is cell-based, rat. The note with it: adenovirus CHIP variant, SI 48 hours, compared to CHIP-WT. The method, then: as §1
Another data set deals with TTR-V122I. Description: TTR abundance in hiPSC-CMs by western blot. The data set is classed as cell-based, human. To be noted: siLamp2A 100 μM, TTR-V122I 5 μM, 14 days. As for the experimental part: Human induced pluripotent stem cell derived cardiomyocytes (hiPSC-CMs) were infected with Ad-Chip WT, SE, or SA (10 MOI), in the presence or absence of protein kinase G (PKG) stimulation via cGMP ([…]) and exposed to media containing TTR-V122I (5 μM) or control for 14 days. Cells were lysed and TTR abundance was determined by western blotting for TTR with a total protein stain used to show equal loading.
Human induced pluripotent stem cell derived cardiomyocytes (hiPSC-CMs) were infected with Ad-Chip WT, SE, or SA (10 MOI), in the presence or absence of Lamp2A knockdown via siRNA (siLamp2A, 100 μM) and exposed to media containing TTR-V122I (5 μM) or control for 14 days. Cells were lysed and TTR abundance was determined by western blotting for TTR with a total protein stain used to show equal loading. Knocking down Lamp2A removes the method of protein degradation known as chaperone mediated autophagy (CMA).

Regarding `CCCc1nn(C)c2c(=O)[nH]c(-c3cc(S(=O)(=O)N4CCN(C)CC4)ccc3OCC)nc12` [SIL, sildenafil], the “CHIP pS20 level” value in the data set with CHIP pS20 is reported as “CHIP pS20 increased”. Besides, in the data set with proteasome, the proteasome activity result is listed as “augmented”. Further, the “SI-induced cytotoxicity (LDH/MTT ratio)” value in data set [1] (NRCMs expressing CHIP (scrambled siRNA)) is reported as “reduced SI-induced cytotoxicity”; in [1] (NRCMs lacking CHIP (CHIP-siRNA)), “this protective effect was lost”. In data set [1] (NRCMs expressing WT, S20E or S20A CHIP, control and SI conditions), the “cytotoxicity with SIL across CHIP forms” value is “lowered cytotoxicity regardless of which CHIP protein was expressed”.

B1: human, active PKG1α purified from Sf9 cells (SRP0371, Sigma) (protein)
chain: SELEEDFAKILMLKEERIKELEKRLSEKEEEIQELKRKLHKCQSVLPVPSTHIGPRTTRAQGISAEPQTYRSFHDLRQAFRKFTKSERSKDLIKEAILDNDFMKNLELSQIQEIVDCMYPVEYGKDSCIIKEGDVGSLVYVMEDGKVEVTKEGVKLCTMGPGKVFGELAILYNCTRTATVKTLVNVKLWAIDRQCFQTIMMRTGLIKHTEYMEFLKSVPTFQSLPEEILSKLADVLEETHYENGEYIIRQGARGDTFFIISKGTVNVTREDSPSEDPVFLRTLGKGDWFGEKALQGEDVRTANVIAAEAVTCLVIDRDSFKHLIGGLDDVSNKAYEDAEAKAKYEAEAAFFANLKLSDFNIIDTLGVGGFGRVELVQLKSEESKTFAMKILKKRHIVDTRQQEHIRSEKQIMQGAHSDFIVRLYRTFKDSKYLYMLMEACLGGELWTILRDRGSFEDSTTRFYTACVVEAFAYLHSKGIIYRDLKPENLILDHRGYAKLVDFGFAKKIGFGKKTWTFCGTPEYVAPEIILNKGHDISADYWSLGILMYELLTGSPPFSGPDPMKTYNIILRGIDMIEFPKKIAKNAANLIKKLCRDNPSERLGNLKNGVKDIQKHKWFEGFNWEGLRKGTLTPPIIPSVASPTDTSNFDSFPEDNDEPPPDDNSGWDIDF
Take B1: the “serine phosphorylation detected by mass spectrometry after incubation with cGMP/PKG” value is “Phosphorylation was observed at S20 with wildtype (WT) CHIP” in data set [2]; “Phosphorylation was also observed at neighboring S24 and S26, but only when a S20A CHIP mutant was used” in data set [3].

B2: CHIP-S20A: phospho-silenced (phospho-null) CHIP mutant, serine 20 to alanine (protein)
chain: MKGKEEKEGGARLGAGGGAPEKSPSAQELKEQGNRLFVGRKYPEAAACYGRVITRNPLVAVYYTNRALCYLKMQQHEQALADCRRALELDGQSVKAHFFLGQCQLEMESYDEAIANLQRAYSLAKEQRLNFGDDIPSALRIAKKKRWNSIEERRIHQESELHSYLSRLIAAERERELEECQRNHEGDEDDSHVRAQQACIEAKHDKYMADMDELFSQVDEKRKKRDIPDYLCGKISFELMREPCITPSGITYDRKDIEEHLQRVGHFDPVTRSPLTQEQLIPNLAMKEVIDAFISENGWVEDY
modifications: left off: small tags and cut ends
notes: phospho-silenced (phospho-null) CHIP mutant, serine 20 to alanine
On to B2, for which, in [4], the TTR positive aggregates entry is on record as “increased TTR positive aggregates”. The “co-precipitation of CHIP and Hsc70” value with Hsc70 is reported as “co-precipitation was absent”. Moreover, the “SI-induced cytotoxicity (LDH/MTT ratio)” value in data set [5] was “displayed greater cytotoxicity and blunted the protective effects from SIL”. The “ubiquitinated proteins after SI” value in the data set with ubiquitinated proteins is “significantly amplified”. For the same molecule, in the data set on TTR-V122I, the “TTR accumulation with Lamp2A knockdown” value is “exacerbated the accumulation of TTR”.
